T1: Semaphorin 3a (UniProt Q14563 21-771, limits assumed)
T1 sequence (looked up): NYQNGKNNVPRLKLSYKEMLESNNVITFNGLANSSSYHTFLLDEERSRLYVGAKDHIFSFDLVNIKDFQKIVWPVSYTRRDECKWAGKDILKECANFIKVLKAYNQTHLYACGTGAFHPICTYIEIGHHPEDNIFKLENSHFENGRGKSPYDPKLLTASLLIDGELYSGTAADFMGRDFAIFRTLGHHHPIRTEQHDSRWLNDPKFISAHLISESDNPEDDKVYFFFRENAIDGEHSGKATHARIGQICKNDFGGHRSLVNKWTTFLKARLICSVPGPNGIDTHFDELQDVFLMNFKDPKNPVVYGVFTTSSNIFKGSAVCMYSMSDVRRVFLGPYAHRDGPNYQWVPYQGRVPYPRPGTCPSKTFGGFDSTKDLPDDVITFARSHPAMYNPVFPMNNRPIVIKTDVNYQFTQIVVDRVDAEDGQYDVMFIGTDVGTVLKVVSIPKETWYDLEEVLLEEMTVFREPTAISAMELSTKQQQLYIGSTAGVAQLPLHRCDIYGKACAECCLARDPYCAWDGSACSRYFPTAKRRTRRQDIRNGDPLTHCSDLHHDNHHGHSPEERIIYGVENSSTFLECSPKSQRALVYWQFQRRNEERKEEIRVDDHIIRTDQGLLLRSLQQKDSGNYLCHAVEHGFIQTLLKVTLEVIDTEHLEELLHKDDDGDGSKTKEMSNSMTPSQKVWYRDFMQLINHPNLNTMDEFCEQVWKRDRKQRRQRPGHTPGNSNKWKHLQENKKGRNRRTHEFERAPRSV

T2: Ron (CD136) (UniProt Q04912 25-957, limits assumed)
T2 sequence (looked up): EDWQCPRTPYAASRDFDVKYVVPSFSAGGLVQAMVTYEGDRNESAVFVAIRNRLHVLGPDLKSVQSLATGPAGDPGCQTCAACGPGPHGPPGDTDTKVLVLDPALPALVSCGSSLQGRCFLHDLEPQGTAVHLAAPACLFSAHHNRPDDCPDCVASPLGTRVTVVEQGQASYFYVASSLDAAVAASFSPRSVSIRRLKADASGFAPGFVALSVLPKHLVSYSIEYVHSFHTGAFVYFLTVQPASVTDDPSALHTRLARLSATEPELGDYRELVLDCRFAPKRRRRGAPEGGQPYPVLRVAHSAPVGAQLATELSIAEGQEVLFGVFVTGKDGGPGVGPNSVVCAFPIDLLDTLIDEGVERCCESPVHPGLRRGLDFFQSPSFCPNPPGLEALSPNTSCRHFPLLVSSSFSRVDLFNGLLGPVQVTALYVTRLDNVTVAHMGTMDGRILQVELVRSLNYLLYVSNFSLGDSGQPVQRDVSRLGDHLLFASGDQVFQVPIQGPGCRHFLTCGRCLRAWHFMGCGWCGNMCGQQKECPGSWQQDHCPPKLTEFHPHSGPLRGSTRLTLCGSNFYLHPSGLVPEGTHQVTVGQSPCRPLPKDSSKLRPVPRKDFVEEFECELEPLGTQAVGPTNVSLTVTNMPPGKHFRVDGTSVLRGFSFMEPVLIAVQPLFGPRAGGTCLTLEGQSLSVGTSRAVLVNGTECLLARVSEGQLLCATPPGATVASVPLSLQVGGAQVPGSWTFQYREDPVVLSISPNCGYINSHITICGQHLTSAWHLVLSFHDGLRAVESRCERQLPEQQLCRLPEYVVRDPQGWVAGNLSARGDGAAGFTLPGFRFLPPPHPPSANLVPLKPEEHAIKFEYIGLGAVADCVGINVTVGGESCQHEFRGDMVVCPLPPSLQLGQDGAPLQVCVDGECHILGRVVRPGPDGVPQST

B1: B09/IgG single-arm control antibody (bispecific antibody, part only; not given: non-binding control arm, V domains shown, part only)
VH: QVQLVQSGAEVKKPGASVKVSCKASGYTFTDYYIHWVRQATGQGLEWMGWMNPNSGNTGYAQKFQGRVTMTRDTSISTAYMELSSLRSEDTAVYYCARGQGYTHSWGQGTMVTVSS
VL: DIQMTQSPSTLSASVGDRVTITCRASEGIYHWLAWYQQKPGKAPKLLIYKASSLASGVPSRFSGSGSGTEFTLTISSLQPDDFATYYCQQYSNYPPTFGGGTKLEIK
B2: QD6/B09-57 DuetMab (bispecific antibody, V domains shown)
VH 1: QVQLVQSGAEVKKPGSSVKVSCKASGGTFSDNDFSWVRQAPGQGLEWMGAIVAVVRTETYAQKFQDRVKITADISTRTTYMELSSLRSEDTAVYYCARRLMSAISGPGAPLLMWGQGTLVTVSS
VL 1: QSALTQPRSVSGSPGQSVTISCTGTSSDVGGYNYVSWYQQHPGKAPKLMIYDVSERPSGVPDRFSGSKSGNTASLTISGLQAEDEADYYCFSYTSSDTLEIFGGGTKLTVL
VH 2: QVQLVQSGAEVKKPGASVKVSCKASGYTFTDYYIHWVRQATGQGLEWMGWMNPNSGNTGYAQKFQGRVTMTRDTSISTAYMELSSLRSEDTAVYYCARGQGYTHSWGQGTMVTVSS
VL 2: DIQMTQSPSTLSASVGDRVTITCRASEGIYHWLAWYQQKPGKAPKLLIYKASSLASGVPSRFSGSGSGTEFTLTISSLQPDDFATYYCQQYSNYPPTFGGGTKLEIK
notes: also called QD6/B09 DuetMab; QD6/B09-AlexaFluor647
B3: QD6 IgG (antibody, V domains shown)
VH: QVQLVQSGAEVKKPGSSVKVSCKASGGTFSDNDFSWVRQAPGQGLEWMGAIVAVVRTETYAQKFQDRVKITADISTRTTYMELSSLRSEDTAVYYCARRLMSAISGPGAPLLMWGQGTLVTVSS
VL: QSALTQPRSVSGSPGQSVTISCTGTSSDVGGYNYVSWYQQHPGKAPKLMIYDVSERPSGVPDRFSGSKSGNTASLTISGLQAEDEADYYCFSYTSSDTLEIFGGGTKLTVL
notes: also called anti-EGFR antibody clone QD6

Experiments:
[1] = target: c-MET receptor on the cell surface (H1975 cells) (UniProt P08581); test: cell-based or functional assay
Chain of c-MET receptor on the cell surface (H1975 cells) (P08581 25-1390): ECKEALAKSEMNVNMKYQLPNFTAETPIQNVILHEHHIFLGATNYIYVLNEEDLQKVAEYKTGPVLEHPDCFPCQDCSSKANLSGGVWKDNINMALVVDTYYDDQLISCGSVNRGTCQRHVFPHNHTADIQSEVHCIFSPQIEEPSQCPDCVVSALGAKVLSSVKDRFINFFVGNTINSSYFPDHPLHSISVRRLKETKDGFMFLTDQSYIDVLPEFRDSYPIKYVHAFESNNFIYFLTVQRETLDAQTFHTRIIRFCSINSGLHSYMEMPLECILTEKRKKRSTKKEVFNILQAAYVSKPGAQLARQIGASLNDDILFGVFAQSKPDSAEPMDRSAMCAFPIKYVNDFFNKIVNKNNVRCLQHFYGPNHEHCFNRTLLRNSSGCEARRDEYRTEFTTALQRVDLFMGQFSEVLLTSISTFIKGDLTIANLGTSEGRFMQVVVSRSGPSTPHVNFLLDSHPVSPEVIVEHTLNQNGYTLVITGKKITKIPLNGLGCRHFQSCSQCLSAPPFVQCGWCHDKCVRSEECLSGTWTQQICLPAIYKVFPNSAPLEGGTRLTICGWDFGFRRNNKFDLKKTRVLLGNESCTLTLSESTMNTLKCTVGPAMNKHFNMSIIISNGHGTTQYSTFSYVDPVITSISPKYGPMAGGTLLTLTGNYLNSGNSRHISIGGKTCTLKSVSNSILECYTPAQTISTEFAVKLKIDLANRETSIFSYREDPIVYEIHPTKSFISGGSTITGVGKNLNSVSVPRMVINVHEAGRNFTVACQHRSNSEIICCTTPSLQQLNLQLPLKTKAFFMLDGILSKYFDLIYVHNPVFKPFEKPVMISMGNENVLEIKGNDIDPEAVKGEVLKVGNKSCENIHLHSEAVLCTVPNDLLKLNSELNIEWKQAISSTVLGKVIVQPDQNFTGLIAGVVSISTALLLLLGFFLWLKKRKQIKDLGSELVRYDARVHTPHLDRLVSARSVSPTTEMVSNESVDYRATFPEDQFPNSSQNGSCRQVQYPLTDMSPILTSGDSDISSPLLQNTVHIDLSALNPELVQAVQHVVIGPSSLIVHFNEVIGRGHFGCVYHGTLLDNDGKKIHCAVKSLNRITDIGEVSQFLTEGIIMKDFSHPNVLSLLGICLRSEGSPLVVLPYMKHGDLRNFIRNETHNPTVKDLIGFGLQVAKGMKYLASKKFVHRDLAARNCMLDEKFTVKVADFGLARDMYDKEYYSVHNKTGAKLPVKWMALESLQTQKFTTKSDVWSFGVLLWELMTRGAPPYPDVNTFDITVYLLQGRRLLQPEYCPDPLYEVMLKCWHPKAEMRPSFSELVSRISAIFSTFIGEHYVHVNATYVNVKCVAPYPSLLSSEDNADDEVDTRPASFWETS

Semaphorin 3a = target: T1, Semaphorin 3a; test: ELISA, antigen coated at 1 µg/mL, antibody titrated from 10 µg/mL
Method: (§1) Specificity for EGFR and cMET species paralogs and closely related family members was determined by ELISA. Briefly, antigen solutions were prepared in PBS at 1 μg/mL and 50 microliters was coated onto half area ELISA assay plates. Plates were washed and blocked with 1% BSA in PBS containing 0.005% Tween-20 (PBS-T) for one hour at room temperature. […] Wells were incubated with 50 microliters of the indicated primary antibodies diluted in PBS-T in a 1:3 dilution series, starting at 10 μg/mL and ending at 0.002 μg/mL, except for the HER4 binding mAb control, MAB1131, for which the series started at 1 μg/mL. The wells were washed 4 times in PBS-T, then 50 μl of goat anti-human Fab HRP-labeled secondary antibody, diluted 1:5000 in PBS-T, was added to each well and incubated for one hour at room temperature. […] 50 microliters of TMB stop solution was added to all wells and the absorbance was read at 450 nm on a SpectraMax M5 microplate reader. Data were analyzed in the SoftMax Pro 5 software and plotted using GraphPad Prism 7 graphing software.
(§2) To determine the species cross reactivity, ELISA assays were carried out as described above.

mouse cMET (recombinant) = mouse cMET (recombinant) (mouse, UniProt P16056 25-929, limits assumed); test: as above
Chain of mouse cMET (recombinant) (P16056 25-929 limits assumed): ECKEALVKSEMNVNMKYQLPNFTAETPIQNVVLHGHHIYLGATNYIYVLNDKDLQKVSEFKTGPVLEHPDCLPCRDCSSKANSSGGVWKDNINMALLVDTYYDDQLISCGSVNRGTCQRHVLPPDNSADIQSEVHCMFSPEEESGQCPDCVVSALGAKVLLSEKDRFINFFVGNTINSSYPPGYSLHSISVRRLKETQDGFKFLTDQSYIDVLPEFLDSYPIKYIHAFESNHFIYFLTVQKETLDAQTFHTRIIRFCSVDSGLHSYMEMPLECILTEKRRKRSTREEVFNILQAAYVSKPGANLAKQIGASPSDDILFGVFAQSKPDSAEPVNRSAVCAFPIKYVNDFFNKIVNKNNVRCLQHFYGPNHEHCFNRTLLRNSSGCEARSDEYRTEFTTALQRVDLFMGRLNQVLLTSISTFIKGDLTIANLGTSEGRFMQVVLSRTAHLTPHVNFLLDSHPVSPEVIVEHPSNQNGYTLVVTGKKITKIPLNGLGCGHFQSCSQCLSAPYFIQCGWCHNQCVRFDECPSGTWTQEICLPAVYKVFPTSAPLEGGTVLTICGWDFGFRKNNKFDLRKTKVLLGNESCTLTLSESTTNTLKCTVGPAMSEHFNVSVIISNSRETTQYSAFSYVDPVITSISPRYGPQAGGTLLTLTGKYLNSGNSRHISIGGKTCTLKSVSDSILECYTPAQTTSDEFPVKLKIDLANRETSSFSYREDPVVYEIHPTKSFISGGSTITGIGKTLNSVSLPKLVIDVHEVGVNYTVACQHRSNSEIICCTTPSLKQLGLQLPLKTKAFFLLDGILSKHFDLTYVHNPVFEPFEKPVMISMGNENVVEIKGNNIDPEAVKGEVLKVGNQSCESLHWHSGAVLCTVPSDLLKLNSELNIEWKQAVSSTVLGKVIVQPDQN
Method: as §1, §2

Ron (CD136) = target: T2, Ron (CD136); test: as above
Method: as §1, §2

[2] = target: T3, cynomolgus monkey EGFR (recombinant, soluble monomeric) (cynomolgus monkey, UniProt P55245 25-645 (rhesus entry)); test: SPR (BIAcore T200), antibody captured on anti-human IgG, soluble monomeric antigen as analyte, 25 C, 1:1 fit
T3 construct: also called cyno EGFR
Method: (§3) Mouse anti-human IgG was immobilized on a CM4 sensor chip with a final surface density of ˜2000 resonance units (RUs). A reference flow cell surface was also prepared on this sensor chip using identical immobilization protocol. Test and control article antibodies were prepared at 5-20 nM in instrument buffer (HBS-EP buffer; 0.01M HEPES, pH 7.4, 0.15M NaCl, 3 mM EDTA, and 0.005% P-20), along with 3-fold serial dilutions of purified EGFR (0.27-200 nM human, 0.4-900 nM cyno, and 4-1000 nM murine) or cMET proteins (0.27-66 nM human and 0.27-22 nM cyno) in instrument buffer. A sequential approach was utilized for kinetic measurements. Antibodies were first injected over the capture surface, at a flow rate of 10 μL/minute. Once the binding of the captured antibody stabilized, a single concentration of the analyte was injected over both capture and reference surfaces, at a flow rate of 75 μL/minute. The resulting binding response curves yielded the association phase data. Following the injection of analyte, the flow was then switched back to instrument buffer for 15 minutes to permit the collection of dissociation phase data, followed by a 1-minute pulse of 10 mM glycine, pH 1.5, to regenerate the antibody-captured surface on the chip. Binding responses against test and control article antibodies were recorded from duplicate injections of each concentration of analyte. In addition, several buffer injections were interspersed throughout the injection series. Select buffer injections were used along with the reference cell responses to correct the raw data sets for injection artifacts and/or nonspecific binding interactions, commonly referred to as “double referencing”. Corrected binding data were globally fit to a 1:1 binding model (Biacore T200 Evaluation software 2.0, GE Healthcare, Pittsburgh, PA).
(§4) Kinetic measurements to soluble monomeric forms of EGFR and cMET were performed using a BIACore instrument.

mouse EGFR (recombinant) = target: T4, mouse EGFR (recombinant) (mouse, UniProt Q01279 25-647); test: as above
T4 construct: also called murine EGFR
Method: as §3, §4

[3] = target: T5, human EGFR (recombinant, soluble monomeric) (human, UniProt P00533 25-645); test: as above
T5 construct: also called EGFR antigen
Method: as §3, §4

[4] = target: T6, cynomolgus monkey cMET (recombinant, soluble monomeric) (cynomolgus monkey, UniProt A0M8R7 25-932 (Papio anubis entry)); test: as above
T6 construct: also called cyno cMET
T6 sequence (A0M8R7 25-932 S170N/I621T): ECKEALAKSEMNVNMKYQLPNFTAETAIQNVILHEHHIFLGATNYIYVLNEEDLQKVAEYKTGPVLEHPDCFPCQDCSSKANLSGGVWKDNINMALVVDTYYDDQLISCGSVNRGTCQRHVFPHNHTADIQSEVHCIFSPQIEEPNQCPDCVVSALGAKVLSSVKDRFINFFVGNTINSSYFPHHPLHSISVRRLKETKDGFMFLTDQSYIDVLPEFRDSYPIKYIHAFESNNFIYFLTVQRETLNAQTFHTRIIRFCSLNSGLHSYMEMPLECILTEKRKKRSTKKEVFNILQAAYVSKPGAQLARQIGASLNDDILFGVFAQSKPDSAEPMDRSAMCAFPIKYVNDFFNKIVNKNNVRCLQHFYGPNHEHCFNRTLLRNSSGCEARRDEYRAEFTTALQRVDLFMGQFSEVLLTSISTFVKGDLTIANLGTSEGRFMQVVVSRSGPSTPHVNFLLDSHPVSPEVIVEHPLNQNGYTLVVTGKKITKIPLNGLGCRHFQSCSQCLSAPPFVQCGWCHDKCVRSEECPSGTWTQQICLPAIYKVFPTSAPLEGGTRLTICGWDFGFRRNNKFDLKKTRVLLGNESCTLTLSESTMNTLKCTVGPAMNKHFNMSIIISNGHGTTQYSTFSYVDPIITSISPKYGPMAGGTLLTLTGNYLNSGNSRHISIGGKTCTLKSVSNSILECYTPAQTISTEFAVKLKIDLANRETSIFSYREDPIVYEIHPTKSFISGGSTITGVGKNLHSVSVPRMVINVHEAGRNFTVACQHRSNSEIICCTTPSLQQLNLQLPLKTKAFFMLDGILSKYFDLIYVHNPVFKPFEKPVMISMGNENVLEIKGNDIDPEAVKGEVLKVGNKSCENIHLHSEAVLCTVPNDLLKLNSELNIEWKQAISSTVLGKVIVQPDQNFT
Method: as §3, §4

[5] = target: T7, human cMET (recombinant, soluble monomeric) (human, UniProt P08581 25-932); test: as above
T7 construct: also called cMET antigen; His-tagged cMET antigen
T7 sequence (P08581 25-932): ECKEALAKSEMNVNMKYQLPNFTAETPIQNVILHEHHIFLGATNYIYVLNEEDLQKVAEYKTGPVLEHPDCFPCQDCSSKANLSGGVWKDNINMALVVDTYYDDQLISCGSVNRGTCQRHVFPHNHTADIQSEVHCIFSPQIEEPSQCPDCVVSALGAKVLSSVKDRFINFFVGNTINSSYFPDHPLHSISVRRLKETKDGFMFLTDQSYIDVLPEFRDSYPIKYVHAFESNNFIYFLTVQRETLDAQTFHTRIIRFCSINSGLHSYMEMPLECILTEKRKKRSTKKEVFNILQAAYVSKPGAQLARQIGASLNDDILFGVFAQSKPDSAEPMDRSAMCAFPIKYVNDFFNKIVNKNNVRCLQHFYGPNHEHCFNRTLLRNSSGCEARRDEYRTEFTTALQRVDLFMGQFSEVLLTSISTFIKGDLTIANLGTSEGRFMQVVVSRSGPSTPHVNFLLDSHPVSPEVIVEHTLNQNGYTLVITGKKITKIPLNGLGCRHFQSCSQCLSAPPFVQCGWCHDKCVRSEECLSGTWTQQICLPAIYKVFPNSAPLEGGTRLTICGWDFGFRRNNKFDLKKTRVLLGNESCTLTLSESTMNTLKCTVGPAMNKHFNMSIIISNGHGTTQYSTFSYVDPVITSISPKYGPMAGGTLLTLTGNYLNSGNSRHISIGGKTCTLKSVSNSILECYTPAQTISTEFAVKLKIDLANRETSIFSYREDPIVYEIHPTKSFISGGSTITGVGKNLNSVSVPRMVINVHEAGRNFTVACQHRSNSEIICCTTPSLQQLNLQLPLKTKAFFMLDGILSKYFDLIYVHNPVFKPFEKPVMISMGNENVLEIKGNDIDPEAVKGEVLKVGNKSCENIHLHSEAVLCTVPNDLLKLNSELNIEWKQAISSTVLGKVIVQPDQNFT
Method: as §3, §4

Binder | cytoplasmic intensity (AlexaFluor647, confocal microscopy, H1975 cells): fold higher for RAA22/B09 DuetMab than for B09-IgG [1] [fold] | binding result (Semaphorin 3a) | binding result (mouse cMET (recombinant)) | binding result (Ron (CD136)) | Kd [2] [nM] | koff [2] [s⁻¹] | kon [2] [M⁻¹ s⁻¹] | Kd (mouse EGFR (recombinant)) [nM] | koff (mouse EGFR (recombinant)) [s⁻¹] | kon (mouse EGFR (recombinant)) [M⁻¹ s⁻¹] | Kd [3] [nM] | koff [3] [s⁻¹] | kon [3] [M⁻¹ s⁻¹] | Kd [4] [nM] | koff [4] [s⁻¹] | kon [4] [M⁻¹ s⁻¹] | Kd [5] [nM] | koff [5] [s⁻¹] | kon [5] [M⁻¹ s⁻¹]
B1 | 4.7 |  |  |  |  |  |  |  |  |  |  |  |  |  |  |  |  |  | 
B2 |  | no binding (tested: 10 µg/mL) | no binding (tested: 10 µg/mL) | no binding (tested: 10 µg/mL) | 2.8 | 0.000585 | 210000 | 6.2 | 0.00078 | 126000 | 5.9 | 0.000374 | 63500 | 2.2 | 0.00206 | 958000 | 1.6 | 0.000696 | 425000
B3 |  | no binding (tested: 10 µg/mL) | no binding (tested: 10 µg/mL) | no binding (tested: 10 µg/mL) |  |  |  |  |  |  |  |  |  |  |  |  |  |  | 

From patent US20250121104A1 (FUSION PHARMACEUTICALS, published 2025)
